Laboratory results as given in patent publication US20120034160A1 (AbbVie / Abbott, published 2012).

T1: Recombinant Human IL-17 (human, UniProt Q16552 20-155, limits assumed)
T1 construct: Bought reagent
T1 sequence (looked up): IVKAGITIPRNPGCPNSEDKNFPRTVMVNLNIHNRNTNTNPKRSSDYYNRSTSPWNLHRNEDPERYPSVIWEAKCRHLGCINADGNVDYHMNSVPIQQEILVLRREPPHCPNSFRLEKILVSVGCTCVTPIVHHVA


Tests used:
[1] = target: T1, Recombinant Human IL-17; experiment: Biacore SPR; C-terminal VD
Outline: (§1)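 Antibodies or DVD-Ig were captured at 25 μg/ml on an amine-coupled goat anti-mouse IgG (Fcγ) CM5 surface, with a blank dextran reference. Antigen was injected at 10−200 nM in HBS-EP pH 7.4 at 25° C. A global 1:1 Langmuir fit gave kon and koff, and KD = koff/kon.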

[2] = target: T2, Recombinant Human IL-1β (human, UniProt P01584 117-269); experiment: Biacore SPR; N-terminal VD
T2 construct: Bought reagent; also called IL-1B
Outline: as §1

[3] = target: T1, Recombinant Human IL-17; experiment: cell-based or functional assay
[4] = target: T2, Recombinant Human IL-1β; experiment: cell-based or functional assay
[5] = target: T2, Recombinant Human IL-1β; experiment: Biacore SPR; C-terminal VD
Outline: as §1

[6] = target: T1, Recombinant Human IL-17; experiment: Biacore SPR; N-terminal VD
Outline: as §1

Binder | Kd [1] | koff [1] | kon [1] | Kd [2] | koff [2] | kon [2] | C-terminal VD IL-17 Neutralization Assay EC50 [3] | N-Terminal VD IL-1β Neutralization Assay EC50 [4] | Kd [5] | koff [5] | kon [5] | Kd [6] | koff [6] | kon [6] | N-terminal VD IL-17 Neutralization Assay EC50 [3] | C-Terminal VD IL-1β Neutralization Assay EC50 [4]
DVD1639 (bispecific antibody, human IgG1, kappa, V1/V2 vectors: wild type hIgG1, kappa) heavy: not shown light: DIQMTQSPSSLSASVGDRVTITCRASGNIHNYLTWYQQTPGKAPKLLIYNAKTLADGVPSRFSGSGSGTDYTFTISSLQPEDIATYYCQHFWSIPYTFGQGTKLQITRTVAAPEIVLTQSPDFQSVTPKEKVTITCRASQNIGSELHWYQQKPDQSPKLLIKYASHSISGVPSRFSGSGSGTDFTLTINGLEAEDAATYYCHQSDTLPHTFGQGTKVDIKRTVAAPSVFIFPPSDEQLKSGTASVVCLLNNFYPREAKVQWKVDNALQSGNSQESVTEQDSKDSTYSLSSTLTLSKADYEKHKVYACEVTHQGLSSPVTKSFNRGEC | ≤ 0.0028 nM | ≤ 1e-06 s⁻¹ | 370000 M⁻¹ s⁻¹ | 0.045 nM | 5.6e-05 s⁻¹ | 1.2e+06 M⁻¹ s⁻¹ | 2.61 nM | 0.0113 nM |  |  |  |  |  |  |  | 
DVD1641 (bispecific antibody, human IgG1, kappa, V1/V2 vectors: wild type hIgG1, kappa) heavy: not shown light: DIQMTQSPSSLSASVGDRVTITCRASGNIHNYLTWYQQTPGKAPKLLIYNAKTLADGVPSRFSGSGSGTDYTFTISSLQPEDIATYYCQHFWSIPYTFGQGTKLQITRTVAAPEIVLTQSPDFQSVTPKEKVTITCRASQNIGSELHWYQQKPDQSPKLLIKYASHSISGVPSRFSGSGSGTDFTLTINGLEAEDAATYYCHQSDTLPHTFGQGTKVDIKRTVAAPSVFIFPPSDEQLKSGTASVVCLLNNFYPREAKVQWKVDNALQSGNSQESVTEQDSKDSTYSLSSTLTLSKADYEKHKVYACEVTHQGLSSPVTKSFNRGEC | 0.27 nM | 2.2e-05 s⁻¹ | 84000 M⁻¹ s⁻¹ | 0.018 nM | 1.9e-05 s⁻¹ | 1e+06 M⁻¹ s⁻¹ | 1.87 nM | 0.0786 nM |  |  |  |  |  |  |  | 
DVD1636 (bispecific antibody, human IgG1, kappa, DVD-Ig: outer AB274, inner AB271; V1/V2 vectors: wild type hIgG1, kappa) heavy: not shown light: EIVLTQSPDFQSVTPKEKVTITCRASQDIGSELHWYQQKPDQPPKLLIKYASHSTSGVPSRFSGSGSGTDFTLTINGLEAEDAGTYYCHQTDSLPYTFGPGTKVDIKRTVAAPDTVVTQSPAFLSVTPGEKVTITCITSTDIDVDMNWYQQKPDQPPKLLISQGNTLRPGVPSRFSSSGSGTDFTFTISSLEAEDAATYYCLQSDNLPLTFGQGTKLEIKRTVAAPSVFIFPPSDEQLKSGTASVVCLLNNFYPREAKVQWKVDNALQSGNSQESVTEQDSKDSTYSLSSTLTLSKADYEKHKVYACEVTHQGLSSPVTKSFNRGEC |  |  |  |  |  |  |  |  | 0.6 nM | 0.00063 s⁻¹ | 1e+06 M⁻¹ s⁻¹ | 0.0046 nM | 1.9e-05 s⁻¹ | 4.1e+06 M⁻¹ s⁻¹ | 0.0075 nM | 27.1 nM
DVD1635 (bispecific antibody, human IgG1, kappa, DVD-Ig: outer AB271, inner AB274; V1/V2 vectors: wild type hIgG1, kappa) heavy: not shown light: DTVVTQSPAFLSVTPGEKVTITCITSTDIDVDMNWYQQKPDQPPKLLISQGNTLRPGVPSRFSSSGSGTDFTFTISSLEAEDAATYYCLQSDNLPLTFGQGTKLEIKRTVAAPEIVLTQSPDFQSVTPKEKVTITCRASQDIGSELHWYQQKPDQPPKLLIKYASHSTSGVPSRFSGSGSGTDFTLTINGLEAEDAGTYYCHQTDSLPYTFGPGTKVDIKRTVAAPSVFIFPPSDEQLKSGTASVVCLLNNFYPREAKVQWKVDNALQSGNSQESVTEQDSKDSTYSLSSTLTLSKADYEKHKVYACEVTHQGLSSPVTKSFNRGEC | 0.14 nM | 4.9e-05 s⁻¹ | 360000 M⁻¹ s⁻¹ | 0.06 nM | 0.00045 s⁻¹ | 7.6e+06 M⁻¹ s⁻¹ | 0.127 nM | 0.24 nM |  |  |  |  |  |  |  | 
DVD1645 (bispecific antibody, human IgG1, kappa, DVD-Ig: outer AB271, inner AB275; V1/V2 vectors: wild type hIgG1, kappa) heavy: not shown light: DTVVTQSPAFLSVTPGEKVTITCITSTDIDVDMNWYQQKPDQPPKLLISQGNTLRPGVPSRFSSSGSGTDFTFTISSLEAEDAATYYCLQSDNLPLTFGQGTKLEIKRTVAAPEIVLTQSPDFQSVTPKEKVTITCRASQNIGSELHWYQQKPDQSPKLLIKYASHSISGVPSRFSGSGSGTDFTLTINGLEAEDAATYYCHQSDTLPHTFGQGTKVDIKRTVAAPSVFIFPPSDEQLKSGTASVVCLLNNFYPREAKVQWKVDNALQSGNSQESVTEQDSKDSTYSLSSTLTLSKADYEKHKVYACEVTHQGLSSPVTKSFNRGEC | 0.65 nM | 8.1e-05 s⁻¹ | 120000 M⁻¹ s⁻¹ | 0.08 nM | 0.00056 s⁻¹ | 7e+06 M⁻¹ s⁻¹ | 0.15 nM | 0.417 nM |  |  |  |  |  |  |  | 
DVD1634 (bispecific antibody, human IgG1, kappa, DVD-Ig: outer AB274, inner AB270; V1/V2 vectors: wild type hIgG1, kappa) heavy: not shown light: EIVLTQSPDFQSVTPKEKVTITCRASQDIGSELHWYQQKPDQPPKLLIKYASHSTSGVPSRFSGSGSGTDFTLTINGLEAEDAGTYYCHQTDSLPYTFGPGTKVDIKRTVAAPDTQVTQSPSSLSASVGDRVTITCITSTDIDVDMNWYQQKPGKPPKLLISQGNTLRPGVPSRFSSSGSGTDFTFTISSLQPEDFATYYCLQSDNLPLTFGQGTKLEIKRTVAAPSVFIFPPSDEQLKSGTASVVCLLNNFYPREAKVQWKVDNALQSGNSQESVTEQDSKDSTYSLSSTLTLSKADYEKHKVYACEVTHQGLSSPVTKSFNRGEC |  |  |  |  |  |  |  |  | 0.63 nM | 0.00055 s⁻¹ | 870000 M⁻¹ s⁻¹ | 0.0052 nM | 1.9e-05 s⁻¹ | 3.7e+06 M⁻¹ s⁻¹ | 0.0241 nM | > 12 nM
DVD1638 (bispecific antibody, human IgG1, kappa, DVD-Ig: outer AB274, inner AB272; V1/V2 vectors: wild type hIgG1, kappa) heavy: not shown light: EIVLTQSPDFQSVTPKEKVTITCRASQDIGSELHWYQQKPDQPPKLLIKYASHSTSGVPSRFSGSGSGTDFTLTINGLEAEDAGTYYCHQTDSLPYTFGPGTKVDIKRTVAAPETTVTQSPSSLSASVGDRVTITCITSTDIDVDMNWYQQKPGKPPKLLISQGNTLRPGVPSRFSSSGSGTDFTFTISSLQPEDFATYYCLQSDNLPLTFGQGTKLEIKRTVAAPSVFIFPPSDEQLKSGTASVVCLLNNFYPREAKVQWKVDNALQSGNSQESVTEQDSKDSTYSLSSTLTLSKADYEKHKVYACEVTHQGLSSPVTKSFNRGEC |  |  |  |  |  |  |  |  | 0.63 nM | 0.00085 s⁻¹ | 1.3e+06 M⁻¹ s⁻¹ | 0.0068 nM | 2.7e-05 s⁻¹ | 3.9e+06 M⁻¹ s⁻¹ | 0.0069 nM | > 20 nM
DVD1633 (bispecific antibody, human IgG1, kappa, DVD-Ig: outer AB270, inner AB274; V1/V2 vectors: wild type hIgG1, kappa) heavy: not shown light: DTQVTQSPSSLSASVGDRVTITCITSTDIDVDMNWYQQKPGKPPKLLISQGNTLRPGVPSRFSSSGSGTDFTFTISSLQPEDFATYYCLQSDNLPLTFGQGTKLEIKRTVAAPEIVLTQSPDFQSVTPKEKVTITCRASQDIGSELHWYQQKPDQPPKLLIKYASHSTSGVPSRFSGSGSGTDFTLTINGLEAEDAGTYYCHQTDSLPYTFGPGTKVDIKRTVAAPSVFIFPPSDEQLKSGTASVVCLLNNFYPREAKVQWKVDNALQSGNSQESVTEQDSKDSTYSLSSTLTLSKADYEKHKVYACEVTHQGLSSPVTKSFNRGEC | < 0.0063 nM | < 1e-06 s⁻¹ | 160000 M⁻¹ s⁻¹ | 0.063 nM | 0.00057 s⁻¹ | 9e+06 M⁻¹ s⁻¹ | 0.146 nM | 0.371 nM |  |  |  |  |  |  |  | 
DVD1647 (bispecific antibody, human IgG1, kappa, DVD-Ig: outer AB272, inner AB275; V1/V2 vectors: wild type hIgG1, kappa) heavy: not shown light: ETTVTQSPSSLSASVGDRVTITCITSTDIDVDMNWYQQKPGKPPKLLISQGNTLRPGVPSRFSSSGSGTDFTFTISSLQPEDFATYYCLQSDNLPLTFGQGTKLEIKRTVAAPEIVLTQSPDFQSVTPKEKVTITCRASQNIGSELHWYQQKPDQSPKLLIKYASHSISGVPSRFSGSGSGTDFTLTINGLEAEDAATYYCHQSDTLPHTFGQGTKVDIKRTVAAPSVFIFPPSDEQLKSGTASVVCLLNNFYPREAKVQWKVDNALQSGNSQESVTEQDSKDSTYSLSSTLTLSKADYEKHKVYACEVTHQGLSSPVTKSFNRGEC | 0.53 nM | 9e-05 s⁻¹ | 170000 M⁻¹ s⁻¹ | 0.083 nM | 0.00059 s⁻¹ | 7.1e+06 M⁻¹ s⁻¹ | 0.34 nM | 0.152 nM |  |  |  |  |  |  |  | 
DVD1643 (bispecific antibody, human IgG1, kappa, DVD-Ig: outer AB270, inner AB275; V1/V2 vectors: wild type hIgG1, kappa) heavy: not shown light: DTQVTQSPSSLSASVGDRVTITCITSTDIDVDMNWYQQKPGKPPKLLISQGNTLRPGVPSRFSSSGSGTDFTFTISSLQPEDFATYYCLQSDNLPLTFGQGTKLEIKRTVAAPEIVLTQSPDFQSVTPKEKVTITCRASQNIGSELHWYQQKPDQSPKLLIKYASHSISGVPSRFSGSGSGTDFTLTINGLEAEDAATYYCHQSDTLPHTFGQGTKVDIKRTVAAPSVFIFPPSDEQLKSGTASVVCLLNNFYPREAKVQWKVDNALQSGNSQESVTEQDSKDSTYSLSSTLTLSKADYEKHKVYACEVTHQGLSSPVTKSFNRGEC | 0.52 nM | 9.4e-05 s⁻¹ | 180000 M⁻¹ s⁻¹ | 0.074 nM | 0.00048 s⁻¹ | 6.5e+06 M⁻¹ s⁻¹ | 0.121 nM | 0.465 nM |  |  |  |  |  |  |  | 
DVD1637 (bispecific antibody, human IgG1, kappa, DVD-Ig: outer AB272, inner AB274; V1/V2 vectors: wild type hIgG1, kappa) heavy: not shown light: ETTVTQSPSSLSASVGDRVTITCITSTDIDVDMNWYQQKPGKPPKLLISQGNTLRPGVPSRFSSSGSGTDFTFTISSLQPEDFATYYCLQSDNLPLTFGQGTKLEIKRTVAAPEIVLTQSPDFQSVTPKEKVTITCRASQDIGSELHWYQQKPDQPPKLLIKYASHSTSGVPSRFSGSGSGTDFTLTINGLEAEDAGTYYCHQTDSLPYTFGPGTKVDIKRTVAAPSVFIFPPSDEQLKSGTASVVCLLNNFYPREAKVQWKVDNALQSGNSQESVTEQDSKDSTYSLSSTLTLSKADYEKHKVYACEVTHQGLSSPVTKSFNRGEC | ≤ 0.0025 nM | < 1e-06 s⁻¹ | 230000 M⁻¹ s⁻¹ | 0.075 nM | 0.00059 s⁻¹ | 7.9e+06 M⁻¹ s⁻¹ | 0.0271 nM | 0.552 nM |  |  |  |  |  |  |  | 
